These results are taken from paper PMC8837689, “Allosteric control of Ubp6 and the proteasome via a bidirectional switch” (Nature Communications, 2022).

The target in assay [1] is 26S proteasome purified from rpt1-RK ubp6Δ hul5Δ yeast, Protein A-tagged (budding yeast) (UniProt P33299).
Assay [2] has as its target 26S proteasome purified from ubp6Δ hul5Δ yeast (nominally wild-type), Protein A-tagged (budding yeast) (UniProt P33299). Put plainly: Ub-AMC hydrolysis (activation of Ubp6 as a proxy for the association); Ubp6 1.25 nM to 60 nM titrated on 1 nM proteasome with 1 μM Ub-AMC; rates of Ubp6 alone and proteasome alone subtracted; hyperbolic fit; 50 mM Tris-HCl pH 7.5, 1 mM EDTA, 1 mM ATP, 5 mM MgCl2, 1 mM DTT, 1 mg/mL ovalbumin.

Assay [3] has as its target 26S proteasome purified from rpt1-RK ubp6Δ hul5Δ yeast, Protein A-tagged (budding yeast) (UniProt P33299). The assay is described as above.
In assay [4] the target is 26S proteasome purified from ubp6Δ hul5Δ yeast (nominally wild-type), Protein A-tagged (budding yeast) (UniProt P33299).
In assay [5] the target is T1, Rpt6 (proteasome subunit) (budding yeast, UniProt Q01939 1-405).
T1 construct: Rpt6, ATPase of the regulatory particle, budding yeast; Stood in the assay as a subunit of m6; source: subunit of the 26S proteasome (3X FLAG) purified from yeast
T1 sequence: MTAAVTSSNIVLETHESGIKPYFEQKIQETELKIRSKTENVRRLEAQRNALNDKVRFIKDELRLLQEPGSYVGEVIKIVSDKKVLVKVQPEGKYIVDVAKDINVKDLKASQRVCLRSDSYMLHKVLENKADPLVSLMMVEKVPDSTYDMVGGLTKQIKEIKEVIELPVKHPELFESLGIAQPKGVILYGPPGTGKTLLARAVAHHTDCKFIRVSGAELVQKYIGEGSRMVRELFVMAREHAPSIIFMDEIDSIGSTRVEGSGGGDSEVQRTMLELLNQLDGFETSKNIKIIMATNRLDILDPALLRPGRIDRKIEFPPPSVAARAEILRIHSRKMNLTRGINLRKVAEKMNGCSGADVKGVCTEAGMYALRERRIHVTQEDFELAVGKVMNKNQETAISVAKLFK
Put plainly: cryo-EM structure; 26S proteasomes and Ubp6-UbVS mixed 1:4 (400 nM 26S or 26S Rpt1-RK, 1.6 μM Ubp6-UbVS), 20 min on ice; 20 mM HEPES-NaOH pH 7.4, 40 mM NaCl, 4 mM DTT, 4 mM MgCl2, 4 mM ATP, ~25% sucrose; maps at 6 to 7 Å, models by flexible fitting. The conditions noted are these: both partners purified.

The target of assay [6] is T2, Ubp6 (wild-type, His6-tagged) (budding yeast, UniProt P43593 1-499).
T2 construct: Ubp6, deubiquitinating enzyme, budding yeast; N-terminal UBL domain and C-terminal catalytic domain (residues 104 to 499); In the cryo-EM rows Ubp6 stood as the UbVS adduct; only the catalytic domain (104-499) was modelled; also called His6-Ubp6; wild-type Ubp6; source: E. coli Rosetta (DE3), purified (Ni-NTA)
T2 sequence (looked up): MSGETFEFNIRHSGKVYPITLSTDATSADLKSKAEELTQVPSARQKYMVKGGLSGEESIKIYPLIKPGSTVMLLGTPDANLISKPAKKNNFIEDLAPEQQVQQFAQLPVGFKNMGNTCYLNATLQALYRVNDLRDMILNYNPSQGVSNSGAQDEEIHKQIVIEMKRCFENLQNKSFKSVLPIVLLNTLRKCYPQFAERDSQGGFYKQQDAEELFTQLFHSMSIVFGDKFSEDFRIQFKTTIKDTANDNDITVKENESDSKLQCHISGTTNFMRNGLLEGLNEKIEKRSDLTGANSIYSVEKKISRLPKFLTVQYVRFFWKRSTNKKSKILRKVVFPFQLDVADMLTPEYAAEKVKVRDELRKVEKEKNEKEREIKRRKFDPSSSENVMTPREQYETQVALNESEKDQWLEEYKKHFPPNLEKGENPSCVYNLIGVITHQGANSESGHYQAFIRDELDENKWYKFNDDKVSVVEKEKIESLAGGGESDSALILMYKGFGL
The description is as above. The conditions noted are these: both partners purified.

Where a chain is given by its changes, count along the chain named. In names and notes the source's numbering stands.

Usually Kd stands for the equilibrium constant for the complex coming apart. Regarding “Ubp6 (wild-type, His6-tagged) (from UniProt P43593 1-499) (enzyme)”, in assay [1], the capacity of the Rpt1-RK proteasome to activate wild-type Ubp6 (Ub-AMC hydrolysis), loss relative to wild-type proteasome is 97 % lost. In addition, the Kd in assay [2] amounted to 3.3 nM; in assay [3], 2 nM.

For the molecule “Ubp6-I329A L330A (from UniProt P43593 97-499) (enzyme)”, in assay [4], the proteasome-activated deubiquitinating activity (Ub-AMC hydrolysis) of Ubp6-AA relative to wild-type Ubp6 is 2 % of WT. Besides, the Kd in assay [2] amounted to 4 nM.

B1: α2 subunit of the CP α ring (natural protein, budding yeast)
chain: MTDRYSFSLTTFSPSGKLGQIDYALTAVKQGVTSLGIKATNGVVIATEKKSSSPLAMSETLSKVSLLTPDIGAVYSGMGPDYRVLVDKSRKVAHTSYKRIYGEYPPTKLLVSEVAKIMQEATQSGGVRPFGVSLLIAGHDEFNGFSLYQVDPSGSYFPWKATAIGKGSVAAKTFLEKRWNDELELEDAIHIALLTLKESVEGEFNGDTIELAIIGDENPDLLGYTGIPTDKGPRFRKLTSQEINDRLEAL
notes: alpha2 subunit of the core particle alpha ring, budding yeast; Stood in the assay as a subunit of m6; source: subunit of the 26S proteasome (3X FLAG) purified from yeast
On to B1, for which the binding result in assay [5] was “binds”.

B2: Rpt1 (proteasome subunit) (natural protein, budding yeast)
chain: MPPKEDWEKYKAPLEDDDKKPDDDKIVPLTEGDIQVLKSYGAAPYAAKLKQTENDLKDIEARIKEKAGVKESDTGLAPSHLWDIMGDRQRLGEEHPLQVARCTKIIKGNGESDETTTDNNNSGNSNSNSNQQSTDADEDDEDAKYVINLKQIAKFVVGLGERVSPTDIEEGMRVGVDRSKYNIELPLPPRIDPSVTMMTVEEKPDVTYSDVGGCKDQIEKLREVVELPLLSPERFATLGIDPPKGILLYGPPGTGKTLCARAVANRTDATFIRVIGSELVQKYVGEGARMVRELFEMARTKKACIIFFDEIDAVGGARFDDGAGGDNEVQRTMLELITQLDGFDPRGNIKVMFATNRPNTLDPALLRPGRIDRKVEFSLPDLEGRANIFRIHSKSMSVERGIRWELISRLCPNSTGAELRSVCTEAGMFAIRARRKVATEKDFLKAVDKVISGYKKFSSTSRYMQYN
notes: Rpt1, ATPase of the regulatory particle, budding yeast; Stood in the assays as a subunit of m6 or m10; source: subunit of the 26S proteasome (3X FLAG) or RP (Protein A) purified from yeast
Regarding B2, the binding result in assay [6] was “binds”.

B3: Rpt1-S164R T166K (natural protein, budding yeast)
chain: B2 chain with S164R, T166K
notes: Rpt1, ATPase of the regulatory particle, budding yeast, with S164R and T166K; Stood in the assay as a subunit of m7; also called Rpt1-RK; rpt1-RK; source: subunit of the Rpt1-RK 26S proteasome (3X FLAG) purified from yeast
Consider B3, for which the binding result in assay [6] is “binds”.

B4: α3 subunit of the CP α ring (natural protein, budding yeast)
chain: MGSRRYDSRTTIFSPEGRLYQVEYALESISHAGTAIGIMASDGIVLAAERKVTSTLLEQDTSTEKLYKLNDKIAVAVAGLTADAEILINTARIHAQNYLKTYNEDIPVEILVRRLSDIKQGYTQHGGLRPFGVSFIYAGYDDRYGYQLYTSNPSGNYTGWKAISVGANTSAAQTLLQMDYKDDMKVDDAIELALKTLSKTTDSSALTYDRLEFATIRKGANDGEVYQKIFKPQEIKDILVKTGITKKDEDEEADEDMK
notes: alpha3 subunit of the core particle alpha ring, budding yeast; Stood in the assay as a subunit of m6; source: subunit of the 26S proteasome (3X FLAG) purified from yeast
Take B4: the binding result in assay [5] was “binds”.
